Experimental data taken from publication PMC2441797.

Target: recombinant PARP-1 (rPARP-1) (UniProt P09874 1-1014)
Experiment: Southwestern blot

Chain of recombinant PARP-1 (rPARP-1) (P09874 whole entry): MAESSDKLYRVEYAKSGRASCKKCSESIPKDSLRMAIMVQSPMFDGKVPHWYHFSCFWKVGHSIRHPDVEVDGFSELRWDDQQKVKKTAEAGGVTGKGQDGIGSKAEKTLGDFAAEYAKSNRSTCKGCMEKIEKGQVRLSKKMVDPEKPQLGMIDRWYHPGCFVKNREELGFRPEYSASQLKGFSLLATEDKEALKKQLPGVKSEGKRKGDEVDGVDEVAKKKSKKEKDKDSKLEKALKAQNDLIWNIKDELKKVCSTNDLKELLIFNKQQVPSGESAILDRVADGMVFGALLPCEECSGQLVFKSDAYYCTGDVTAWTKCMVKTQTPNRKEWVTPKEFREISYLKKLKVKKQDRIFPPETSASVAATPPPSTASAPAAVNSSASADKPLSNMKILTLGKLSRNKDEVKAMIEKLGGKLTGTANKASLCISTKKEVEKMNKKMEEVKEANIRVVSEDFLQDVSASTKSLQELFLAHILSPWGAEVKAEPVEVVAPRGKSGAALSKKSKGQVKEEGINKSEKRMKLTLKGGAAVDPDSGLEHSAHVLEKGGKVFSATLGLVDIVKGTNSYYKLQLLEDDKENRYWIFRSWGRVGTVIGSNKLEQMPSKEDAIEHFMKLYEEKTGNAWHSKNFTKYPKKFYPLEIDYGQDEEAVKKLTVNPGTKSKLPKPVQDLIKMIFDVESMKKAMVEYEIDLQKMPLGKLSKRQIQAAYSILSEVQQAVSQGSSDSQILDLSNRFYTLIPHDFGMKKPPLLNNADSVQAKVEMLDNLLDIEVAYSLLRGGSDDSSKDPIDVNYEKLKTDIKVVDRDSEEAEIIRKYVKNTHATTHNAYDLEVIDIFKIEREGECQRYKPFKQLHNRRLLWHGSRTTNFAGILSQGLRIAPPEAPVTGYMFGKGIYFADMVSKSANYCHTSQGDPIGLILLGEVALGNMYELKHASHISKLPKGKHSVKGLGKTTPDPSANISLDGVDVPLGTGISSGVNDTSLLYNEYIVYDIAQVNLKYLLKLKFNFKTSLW

AGGGCGGTGTGGGAAGAGGGAAGAGGGGGAGG (structured_DNA) [32R (KRAS NHE G-quadruplex), radiolabelled]: binds.
